Measured values as given in article PMC6337079, “Exploring Novel Functions of the Small GTPase Ypt1p under Heat-Shock by Characterizing a Temperature-Sensitive Mutant Yeast Strain, ypt1-G80D” (International Journal of Molecular Sciences, 2019).

Biological target: the molecule itself
Test: native gel or EMSA; purified protein (3 μg/μL) incubated at 25 °C or 45 °C for 30 min, native-PAGE, silver-stained; self-association

B1: Ypt1p (purified bacterially expressed recombinant) (natural protein)
chain: not shown
notes: Ypt1p, Rab family small GTPase of Saccharomyces cerevisiae, from the plasmid pGEX-YPT1; monomer printed as 23.5 kDa; also called native Ypt1p; wild-type Ypt1p; source: E. coli BL21(DE3)pLysS, purified (GSH-agarose, thrombin cleavage, TSK heparin-5PW HPLC, ATP-agarose)
B1: binds.

B2: Ypt1p^G80D (purified bacterially expressed recombinant) (natural protein)
chain: not shown
notes: Ypt1p of Saccharomyces cerevisiae with G80D, from the plasmid pGEX-ypt1^G80D (pGEX-2T, BamHI/HindIII insert); source: E. coli BL21(DE3)pLysS, purified (GSH-agarose, thrombin cleavage, TSK heparin-5PW HPLC, ATP-agarose)
B2: binds.
